According to patent publication US20200317791A1 (Janssen / Centocor, published 2020):
Like-named read-outs stand apart in the source and are kept apart here.

Columns and labels:
[1] = biological target: T1, CW6W36 (rhHLA-Cw6/ADAMTSL5) (human); assay: SPR Biacore 8K, captured mAb; Acceptable fit
T1 construct: also called CW6W36.002; rHLA-Cw6/ADAMTSL5
Excerpt: (§1) To further characterize the ability of the antibodies to differentiate between class I MHC molecules.

CW6W51.001 = assay: SPR Biacore 8K, captured mAb; Acceptable fit
Excerpt: as §1

CW6W53.001 = assay: SPR Biacore 8K, captured mAb; Acceptable fit
Excerpt: as §1

CW6W35.001 = assay: SPR Biacore 8K, captured mAb; Acceptable fit
Excerpt: as §1

CW6W54.001 = assay: SPR Biacore 8K, captured mAb; Acceptable fit
Excerpt: as §1
A24_A*24:02 [2] = biological target: T2, A24_A*24:02 (human, UniProt A*24:02); assay: LABScreen beads
T2 construct: on LABScreen bead; also called HLA-A*24:02 (LABScreen class I bead)
T2 heavy chain: not shown

[3] = biological target: T3, CW6W3.ECO.PP.002/.003 (rhHLA-Cw6/ARF) (human); assay: SPR ProteOn XPR36, captured mAb; valid kinetic fit, range of two replicates
T3 construct: also called rhHLA-Cw6/ARFN; rHLA-Cw6/ARFN
Description: (§2) Anti-HLA-Cw6 mAbs were captured at ligand densities ranging from 100 to 200 response units. […] All analyses were conducted in PBST at 100 μL/min flow rate with association and dissociation times of 180 and 900 seconds, respectively. […] Analyte raw data was double referenced by subtraction of the blank surface response at “interspots” (to correct for refractive index changes and any non-specific interactions with the chip surface) and of the buffer blank response (to correct for any baseline drift resulting from mAb dissociation over time). Referenced data were globally fit to a 1:1 simple Langmuir binding model. Kinetic parameters were calculated for each mAb/antigen combination or interaction using Bio-Rad ProteOn Manager software (version 3.1.0.6) with parameter (kon, koff, Rmax) scope and type set to “Grouped” and “Fitted,” respectively.

CW6W32 (rhHLA-Cw6/TRAT) = biological target: T4, CW6W32 (rhHLA-Cw6/TRAT) (human); assay: SPR Biacore 8K, captured mAb; Kinetic fit not valid
T4 construct: also called CW6W32.009; rHLA-Cw6/TRAT

[4] = biological target: T3, CW6W3.ECO.PP.002/.003 (rhHLA-Cw6/ARF); assay: SPR ProteOn XPR36, captured mAb; valid kinetic fit, range of two replicates (upper end)
Description: as §2
A24_A*24:02 [5] = biological target: T2, A24_A*24:02; assay: LABScreen beads
[6] = biological target: T5, HLA-Cw6/TRAT on K562-rhHLA-Cw6 cells loaded with TRAT peptide (human, UniProt P10321 25-366); assay: cell-based or functional assay
T5 MHC heavy: […]
T5 peptide: TRATKMQVI

A24_A*24:02 [7] = biological target: T2, A24_A*24:02; assay: LABScreen beads

B1: CW6B175 (antibody, V domains shown)
VH: EVQLVESGGGLVQPGGSLRLSCAASGFTFTNYWMTWVRQAPGKGLEWVANIKQSGSEKYYVDSVKGRFTISRDNAKNSLYLQMNSLRAEDTAVYYCARTLYEWELEPFDYWGQGTLVTVSS
VL: SYVLTQPPSVSVAPGQTARITCGGNRIGSKSVHWYQQKPGQAPVLVVFDDSDRPSGIPERFSGSNSGITATLTISRVEAGDEADYYCQVWDSSNDHVVFGGGTKLTVL
notes: also called CW6B175.001; CW6M175 (DNA ID)
B1 gave a Kd [1] of 1870 pM, a koff [1] of 0.0163 s⁻¹ and a kon [1] of 8.73e+06 M⁻¹ s⁻¹. The Kd (CW6W51.001) was 157 pM, the koff (CW6W51.001) was 0.000285 s⁻¹ and the kon (CW6W51.001) was 1.82e+06 M⁻¹ s⁻¹. The Kd (CW6W53.001) was 327 pM, the koff (CW6W53.001) was 0.00056 s⁻¹ and the kon (CW6W53.001) was 1.72e+06 M⁻¹ s⁻¹. For the same binder, the Kd (CW6W35.001) was 120 pM, the koff (CW6W35.001) was 0.000126 s⁻¹ and the kon (CW6W35.001) was 1.05e+06 M⁻¹ s⁻¹. It also gave a Kd (CW6W54.001) of 128 pM, a koff (CW6W54.001) of 0.000842 s⁻¹ and a kon (CW6W54.001) of 6.6e+06 M⁻¹ s⁻¹. The binding result (A24_A*24:02 [2]) was “no binding (tested: 10 µg/ml)”, the Kd [3] was 28.5 pM and the koff [3] was 0.000314 s⁻¹. The kon [3] was 1.05e+07 M⁻¹ s⁻¹, the Kd (CW6W32 (rhHLA-Cw6/TRAT)) was 663 pM and the koff (CW6W32 (rhHLA-Cw6/TRAT)) was 0.284 s⁻¹. For the same binder, the kon (CW6W32 (rhHLA-Cw6/TRAT)) was 4.28e+08 M⁻¹ s⁻¹, the Kd [4] was 34.6 pM and the koff [4] was 0.000363 s⁻¹. The kon [4] was 1.1e+07 M⁻¹ s⁻¹.

B2: CW6B237 (antibody, V domains shown)
VH: QVTLKESGPVLVKPTETLTLTCTVSGFSLSNARMGVSWIRQPPGKALEWLAHIFSHDEKFYSTFLKSRLTISKDTSKSQVVLMMTNMDPVDTATYYCARIILSSSGHDAFDIWGQGTMVTVSS
VL: AIQMTQSPSSLSASVGDRVTITCRASQDIRHNLGWYQQKPGKAPNLLIYAASSLQSGVPSRFSGSGSGTDFILTISSLQPEDFATFFCLQDYIYPLTFGGGTKVEIK
notes: also called CW6B237.001; CW6M237 (DNA ID)
For B2, the binding result (A24_A*24:02 [5]) was “no binding (tested: 10 µg/ml)” and the “IC50 (read off the curve)” value [6] was about 0.3 µg/mL.

B3: CW6B238 (antibody, V domains shown)
VH: QVTLKESGPVLVKPTETLTLTCTVSGFSLNNARMGVSWIRQPPGKALEWLAHMFSSDEKFYRTSLKSRLTISKDTSKSQVVLTMTNMDPVDTATYYCARISLYSSGHDTFDLWGQGTMVTVSS
VL: AIQMTQSPSSLSASVGDRVTITCRASQDIRNTLGWYQQKPGKAPNLLIYAASSLQSGVPSRFSGSGSGTDFTLTISSLQPEDFATYYCLQDYDYPLTFGGGTKVEIK
notes: also called CW6B238.001; CW6M238 (DNA ID)
B3: no binding (tested: 10 µg/ml) (A24_A*24:02 [7]).
